Test results: the RNAGym collection of RNA variant scans (doi:10.7554/elife.80360)

B1: Hairpin Ribozyme (parent)
chain: GUCCUCUUUCACGUGCGCGUGAAAGAGAGAAGUGAACCAGAGAAACACACGUUGUGGUAUAUUACCUGGUA

Variants of: B1
Test: self-cleavage, relative activity (ratio to wild type); higher = more cleavage; co-transcriptional

Variant	self-cleavage
GUCCUCUUUCACGUGCGCGUGAAAGAGAGAAGUGAAACAGAGAAACACACGUUGUGGUAUAUUACCUGGUU	0.284
GUCCUCUUUCACGUGCGCGUGAAAGAGAGAAGUGAAACAGAGAAACACAUGUUGUGGUAUAUUACCUGGUA	0.138
GUCCUCUUUCACGUGCGCGUGAAAGAGAGAAGUGAAACAGAGAAACACACGUUGUGGUAUAUUACAUGGUA	0.0612
GUCCUCUUUCACGUGCGCGUGAAAGAGAGAAGUGAAACAGAGAAACACACGUUGUGGUAUAUUACGUGGUA	0.105
GUCCUCUUUCACGUGCGCGUGAAAGAGAGAAGUGAAACAGAGAAACACACGUUGUGGUAUAUUACUUGGUA	0.179
GUCCUCUUUCACGUGCGCGUGAAAGAGAGAAGUGAAACAGACAAACACACGUUGUGGUAUAUUACCUGGUA	0.16
GUCCUCUUUCACGUGCGCGUGAAAGAGAGAAGUGAAACAGAGAAACACACCUUGUGGUAUAUUACCUGGUA	0.239
GUCCUCUUUCACGUGCGCGUGAAAGAGAGAAGUGAAACAGAGAAACACACGUUGUAGUAUAUUACCUGGUA	0.156
GUCCUCUUUCACGUGCGCGUGAAAGAGAGAAGUGAAACAGAGAAACACACGUUGUUGUAUAUUACCUGGUA	0.189
GUCCUCUUUCACGUGCGCGUGAAAGAGAGAAGUGAAACAGAGAAACACACGUUGUGCUAUAUUACCUGGUA	0.158
GUCCUCUUUCACGUGCGCGUGAAAGAGAGAAGUGAAACAGAGAAACACACGUUGUGGUAUAUUACCUCGUA	0.254
GUCCUCUUUCACGUGCGCGUGAAAGAGAGAAGUGAAACAGAGAAACACACGUUGUGGUAUAUUACCUGUUA	0.777
GUCCUCUUUCACGUGCGCGUGAAAGAGAGAAGUGAAACAGAGAAACACACGCUGUGGUAUAUUACCUGGUA	0.266
GUCCUCUUUCACGUGCGCGUGAAAGAGAGAAGUGAAACAGAGAAACACACGUGGUGGUAUAUUACCUGGUA	0.23
GUCCUCUUUCACGUGCGCGUGAAAGAGAGAAGUGAAACAGAGAAACACACGUUGAGGUAUAUUACCUGGUA	0.121
GUCCUCUUUCACGUGCGCGUGAAAGAGAGAAGUGAAACAGAGAAACACACGUUGGGGUAUAUUACCUGGUA	0.0701
GUCCUCUUUCACGUGCGCGUGAAAGAGAGAAGUGAAACAGAGAAACACACGUUGUGGAAUAUUACCUGGUA	0.235
GUCCUCUUUCACGUGCGCGUGAAAGAGAGAAGUGAAACAGAGAAACACACGUUGUGGUAAAUUACCUGGUA	0.303
GUCCUCUUUCACGUGCGCGUGAAAGAGAGAAGUGAAACAGAGAAACACACGUUGUGGUAUAAUACCUGGUA	0.133

Variant	self-cleavage
GUCCUCUUUCACGUGCGCGUGAAAGAGAGAAGUGAAACAGAGAAACACACGUUGUGGUAUAUGACCUGGUA	0.131
GUCCUCUUUCACGUGCGCGUGAAAGAGAGAAGUGAAACAGAGAAACACACGUUGUGGUAUAUUACCAGGUA	0.197
GUCCUCUUUCACGUGCGCGUGAAAGAGAGAAGUGAAACAGAGAAACACACGUUGUGGUAUAUUACCGGGUA	0.202
GUCCUCUUUCACGUGCGCGUGAAAGAGAGAAGUGAAACAGAGAAACACACGUUGUGGUAUAUUACCUGGGA	0.446
GUCCUCUUUCACGUGCGCGUGAAAGAGAGAAGUGAAGCAGAGAAACACACGUUGUGGUAUAUUACCUGGUA	0.363
GUCCUCUUUCACGUGCGCGUGAAAGAGAGAAGUGAAGCGGAGAAACACACGUUGUGGUAUAUUACCUGGUA	0.328
GUCCUCUUUCACGUGCGCGUGAAAGAGAGAAGUGAAGCUGAGAAACACACGUUGUGGUAUAUUACCUGGUA	0.0635
GUCCUCUUUCACGUGCGCGUGAAAGAGAGAAGUGAAGCAGUGAAACACACGUUGUGGUAUAUUACCUGGUA	0.541
GUCCUCUUUCACGUGCGCGUGAAAGAGAGAAGUGAAGCAGAGCAACACACGUUGUGGUAUAUUACCUGGUA	0.108
GUCCUCUUUCACGUGCGCGUGAAAGAGAGAAGUGAAGCAGAGGAACACACGUUGUGGUAUAUUACCUGGUA	0.261
GUCCUCUUUCACGUGCGCGUGAAAGAGAGAAGUGAAGCAGAGUAACACACGUUGUGGUAUAUUACCUGGUA	0.177
GUCCUCUUUCACGUGCGCGUGAAAGAGAGAAGUGAAGCAGAGACACACACGUUGUGGUAUAUUACCUGGUA	0.16
GUCCUCUUUCACGUGCGCGUGAAAGAGAGAAGUGAAGCAGAGAACCACACGUUGUGGUAUAUUACCUGGUA	0.112
GUCCUCUUUCACGUGCGCGUGAAAGAGAGAAGUGAAGCAGAGAAACCCACGUUGUGGUAUAUUACCUGGUA	0.14
GUCCUCUUUCACGUGCGCGUGAAAGAGAGAAGUGAAGCAGAGAAACACGCGUUGUGGUAUAUUACCUGGUA	0.18
GUCCUCUUUCACGUGCGCGUGAAAGAGAGAAGUGAAGCAGAGAAACACACGUUGUGGUUUAUUACCUGGUA	0.0586
GUCCUCUUUCACGUGCGCGUGAAAGAGAGAAGUGAAGCAGAGAAACACACGUUGUGGUAUCUUACCUGGUA	0.112
GUCCUCUUUCACGUGCGCGUGAAAGAGAGAAGUGAAGCAGAGAAACACACGUUGUGGUAUAUUACCUGGUC	0.784
GUCCUCUUUCACGUGCGCGUGAAAGAGAGAAGUGAAGCAGAGAAACACACGUUGUGGUAUAUUACCUGGUU	0.216
